Experimental data reported in publication PMC5114276.
Blank lines part the entries; values can stand above or below the substance they belong to.

Experiments:
[1] = target: connexin36 (Cx36), rat, full length, fluorescently tagged (rat) (UniProt O70610); assay: FRET or BRET; acceptor bleach FRET on a confocal microscope, Neuro2a cells 48 h after transient co-transfection; read at gap junction plaques (GJP) or at vesicles; non-stimulated or with 2 mM [Ca2+]E and 2 μM ionomycin, 24 μM BAPTA-AM or 10 μM W-7; FRET distance calculated from the efficiency (Ro 5.09), threshold 10 nm
[2] = target: connexin36 (Cx36), rat, full length, fluorescently tagged (rat) (UniProt O70610)
[3] = target: Cx36 mutant R278A, rat, full length, fluorescently tagged (rat) (UniProt O70610); assay: FRET or BRET; acceptor bleach FRET on a confocal microscope, Neuro2a cells 48 h after transient co-transfection; read at gap junction plaques (GJP) or at vesicles; non-stimulated or with 2 mM [Ca2+]E and 2 μM ionomycin, 24 μM BAPTA-AM or 10 μM W-7; FRET distance calculated from the efficiency (Ro 5.09), threshold 10 nm
[4] = target: Cx36 mutant G276A, rat, full length, fluorescently tagged (rat) (UniProt O70610); assay: as above

FRET distance (GJP, non-stimulated) [1]: 10.9 nm | FRET distance (GJP, stimulated with Ca2+ and ionomycin) [1]: 10.1 nm | FRET distance (vesicles, non-stimulated) [1]: 9.96 nm | FRET distance (vesicles, stimulated with Ca2+ and ionomycin) [1]: 10.8 nm
Substance: calcium insensitive mutant CaM_(E1234Q) (from UniProt P0DP29 1-149) (natural protein)

ethidium bromide fluorescence recovery after photobleaching in pairs of Neuro2a cells expressing Cx36–ECFP (CaM of the cells), non-stimulated [2]: 5.82% | ethidium bromide fluorescence recovery after photobleaching in pairs of Neuro2a cells expressing Cx36–ECFP (CaM of the cells), stimulated with 2 mM [Ca2+]E and 2 μM ionomycin [2]: 47.5% | ethidium bromide fluorescence recovery after photobleaching in pairs of Neuro2a cells expressing Cx36–ECFP, CaM blocked with 10 μM W-7, non-stimulated [2]: 16.6% | ethidium bromide fluorescence recovery after photobleaching in pairs of Neuro2a cells expressing Cx36–ECFP, CaM blocked with 10 μM W-7, stimulated with 2 mM [Ca2+]E and 2 μM ionomycin [2]: 3.77% | FRET distance (vesicles, non-stimulated) [3]: 9.33 nm | FRET distance (vesicles, stimulated with Ca2+ and ionomycin) [3]: 8.26 nm | FRET efficiency (vesicles, non-stimulated) [3]: 2.84% | FRET efficiency (vesicles, stimulated with Ca2+ and ionomycin) [3]: 6.54% | FRET distance (GJP, non-stimulated) [1]: 9.11 nm | FRET distance (GJP, stimulated with Ca2+ and ionomycin) [1]: 9.61 nm | FRET distance (vesicles, non-stimulated) [1]: 9.27 nm | FRET distance (vesicles, non-stimulated; panel of the alanine mutants) [1]: 9.15 nm | FRET distance (vesicles, stimulated with Ca2+ and ionomycin) [1]: 8.09 nm | FRET distance (vesicles, stimulated with Ca2+ and ionomycin; panel of the alanine mutants) [1]: 7.69 nm | FRET efficiency (GJP, 10 μM W-7) [1]: 2.7% | FRET efficiency (GJP, 24 μM BAPTA-AM) [1]: 2.8% | FRET efficiency (GJP, non-stimulated; FRET pair I Cx36–DsRed, CaM–ECFP) [1]: 3.23% | FRET efficiency (GJP, non-stimulated; FRET pair II Cx36–ECFP, CaM–DsRed) [1]: 3.35% | FRET efficiency (GJP, stimulated with Ca2+ and ionomycin) [1]: 2.8% | FRET efficiency (vesicles, non-stimulated; FRET pair I Cx36–DsRed, CaM–ECFP) [1]: 3.65% | FRET efficiency (vesicles, non-stimulated; FRET pair II Cx36–ECFP, CaM–DsRed) [1]: 3.09% | FRET efficiency (vesicles, stimulated with Ca2+ and ionomycin) [1]: 6.38% | FRET efficiency (vesicles, stimulated with Ca2+ and ionomycin; panel of the alanine mutants) [1]: 8.82% | FRET distance (vesicles, non-stimulated) [4]: 8.16 nm | FRET distance (vesicles, stimulated with Ca2+ and ionomycin) [4]: 7.48 nm | FRET efficiency (vesicles, non-stimulated) [4]: 6.61% | FRET efficiency (vesicles, stimulated with Ca2+ and ionomycin) [4]: 9.74%
Substance: calmodulin (CaM), rat, full length, fluorescently tagged (from UniProt P0DP29 1-149) (natural protein)
